Holding throughout (assay): cell-based or functional assay
For experiment [1], the target named is human MIP-1α (CCL3) (human) (UniProt P10147).
Experiment [2] has as its target murine MIP-1β (CCL4) (murine) (UniProt P14097).
In experiment [3] the target is murine RANTES (CCL5) (murine) (UniProt P30882).
murine RANTES (CCL5) (murine), sequence (P30882 24-91 limits assumed): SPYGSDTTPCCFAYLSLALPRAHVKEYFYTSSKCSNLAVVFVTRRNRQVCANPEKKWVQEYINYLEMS

murine MIP-1β (CCL4) (murine), sequence (P14097 24-92 limits assumed): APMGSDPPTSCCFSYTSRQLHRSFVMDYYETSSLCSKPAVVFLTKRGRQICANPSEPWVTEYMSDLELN
human MIP-1α (CCL3) (human), sequence (P10147 27-92 limits assumed): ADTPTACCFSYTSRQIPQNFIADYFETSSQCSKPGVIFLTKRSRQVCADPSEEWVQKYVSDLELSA

As to hCCR5(EC2)-IgG (Fc fusion), in experiment [1], the inhibition of chemokine-induced THP-1 cell migration (transwell chemotaxis assay) is 50%. On to mCCR5(EC3)-IgG (Fc fusion), for which the inhibition of chemokine-induced THP-1 cell migration (transwell chemotaxis assay) in experiment [2] and in experiment [3] was 50% in each case.

(Values after patent US20100227805A1.)
